According to the supplement of paper PMC9170038:

How the values were obtained:
MS2 coat protein [1] = assay: apparent KD of MS2 coat protein, switch ON state; designed switch direction (-1 OFF switch, 1 ON switch): -1; higher = weaker reporter binding; conditions: FMN input: 0 or 200 uM; Eterna round: R93 (includes R88 designs)
Method in brief: (§1)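 Titrations with SNAP-549-labelled MS2 coat protein ran in twofold steps from 0.7 or 1.5 nM to 3 µM, each step taking 0.8–1.5 h at the start and 10–20 min toward the end. The targets were designed RNA switches transcribed on-chip from Illumina sequencing clusters, held in 100 mM Tris-HCl pH 7.5, 80 mM KCl, 4 mM MgCl2, without or with constant ligand. Apparent KD was taken per design as the median of normalised cluster binding-curve fits.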

MS2 coat protein [2] = assay: apparent KD of MS2 coat protein, switch OFF state (with FMN for OFF switches, without FMN for ON switches); designed switch direction (-1 OFF switch, 1 ON switch): -1; higher = weaker reporter binding; conditions: FMN input: 0 or 200 uM; Eterna round: R93 (includes R88 designs)
Method in brief: as §1

| Sequence | apparent KD of MS2 coat protein (MS2 coat protein [1]) [nM] | apparent KD of MS2 coat protein (MS2 coat protein [2]) [nM] |
| --- | --- | --- |
| AAGAUGUCAGGAUAUGUGUAAAGAAUAAAAGAAAUAACAACACAGAAGGGACAUGAGGAUCACCCAUGUCAACA [May 34] | 26.9 | 19.8 |
| AAGAAGCUAGGAUAUACAAAAUAAAAGAAAAGAAAGAAAGAACAUGAGGAUCACCCAUGUAGAAGGAGCAAGAA [Sebkay] | 31.3 | 21.4 |
| AGAAACCUAGGAUAUACAUGAGGAUCACCCAUGUAAAGAAAGAGGAGAGCCACAAGAAGUAGAAGGAGGAAGAA [JR_Exc003_Sub006] | 22.7 | 34.9 |
| UUUUGACAUGAGGAUCACCCAUGUCAGGAUAUAGUAGGAAAAAAAAAAAAAAAAACUACUAGAAGGGAUAUGGA [Design 15: Not So Super Stable 1] | 21.7 | 40.2 |
| AAGAAGUGAGGAUAUACAUGAGGAUCACCCAUGUAAAAGAAAGAAAGGGAAAAGAAAAGUAGAAGGCGCAAGAA [Aakheperre Shoshenq V] | 34.1 | 44.7 |
| AACACACAUGAGGAUCACCCAUGUAAGGAUAUGCGAGCAAGAAGAAAGAACAGAAAAAGCAGAAGGUACACACA [Amethyst 75] | 29.6 | 29.5 |
| AAAAAUCGAGGAUAUACAUGAGGAUCACCCAUGUCAGAAAAUGACUACACAAAAGAAAGUAGAAGGCGAUAAAG [Mat - Exclusion 3 - Mayanna mod - D131] | 32 | 64.1 |
| AGUUGGCGAGGAUAUACAUGAGGAUCACCCAUGUGAGAGAAAAAAGUGGAAAAGAAAAGUAGAAGGCGCUGACA [Mat - Exclusion 3 - Lego mod - D90] | 39.4 | 119 |
| AGAAAGUGAGGAUAUACAUGAGGAUCACCCAUGUAGAACGAGAGUUAUAAAAAUGGAAGUAGAAGGCACAAAAG [Meechl MS2 Ex3] | 28.3 | 32.8 |
| AGAAAGUCAGGAUAUGCAGACAAAGCAAAAAAGCAAUGUCUGCAGAAGGGACAUGAGGAUCACCCAUGUAAAGA [Mat - Exclusion 4 - Mayanna - D117] | 50.3 | 47.5 |
| GAAAACUGAGGAUAUACUUUGGGAAAAGAAAAGAUGAUGUUACAUGAGGAUCACCCAUGUAGAAGGCAGAAAAG [Mat - Exclusion 2 - Mod - D151] | 25.3 | 34.5 |
| AAGAGUACAGGAUAUACAUGAGGAUCACCCAUGUGAAAAUUAAGUGGCGUACAACAAAGUAGAAGGGUACUGGA [Ruby 51] | 21.9 | 41.7 |
| AGUCGGCGAGGAUAUACAUGAGGAUCACCCAUGUGAGAGAAAAAAGUGAGCAAGAAAAGUAGAAGGCGCUGACA [JL Lego Mod 2] | 54.2 | 154 |
| AAAAAACGAGGAUAUACAAAAACAAAAGGAACAAAAUACAAACAUGAGGAUCACCCAUGUAGAAGGCGUAAAAA [Default title] | 29.5 | 23.5 |
| CUCAUGUGAGGAUAUGUACAGAAAAAAAUGGGUGAAACUGUACAGAAGGCACAUGAGGAUCACCCAUGUGAAAA [EX4 378: S S Pseudoknot 3] | 26.1 | 21.1 |
| GUAAACCUAGGAUAUACAUGAGGAUCACCCAUGUAAAAUUUCAUAAAAAGAAAAUCAAGUAGAAGGAGGUAGAU [JR_Exc003_Sub1223] | 17.3 | 24.8 |
| AAAGGGUCAGGAUAUUGAUUAAUAAUAAAAUAAAUAAAGAUCAAGAAGGGACAUGAGGAUCACCCAUGUAUAAA [May 78] | 40.5 | 63 |
| AGAAAACAUGAGGAUCACCCAUGUGAGGAUAUGCGAAAAGAAAGAAAAUAAAAUAAAAGCAGAAGGUACAAAUA | 29.9 | 31.3 |
| CUCUAGUCAGGAUAUACAAGAAAAGAAAAGAAAGAAAAGAAGUAGAAGGGACAUGAGGAUCACCCAUGUAAGAA [EteRNA is fun!] | 70.4 | 91.5 |
| AAAAAUCUAGGAUAUACAUGAGGAUCACCCAUGUAAGAAAAUGAUUACACAAAAGAAAGUAGAAGGAGAUAAAA [Ex 3 May 19] | 17.4 | 18.4 |
| ACAAACCGAGGAUAUACAUGAGGAUCACCCAUGUAGACGAACACAUGCGUCAUCACCAGUAGAAGGUGGAAAAC [Telaandi] | 29.9 | 26.3 |
| AGCUAGUGAGGAUAUACGAACAUGUCAACAGACUGUAAGGGACAUGAGGAUCACCCAUGUAGAAGGCACUAGCA [Diamond 56] | 59.4 | 174 |
| AUAAAACAUGAGGAUCACCCAUGUGAGGAUAUGCGAAACAAACAAACAAACAAACAAAGCAGAAGGCACAAUAA [Amethyst 9] | 22.6 | 24.6 |

| Sequence | apparent KD of MS2 coat protein (MS2 coat protein [1]) [nM] | apparent KD of MS2 coat protein (MS2 coat protein [2]) [nM] |
| --- | --- | --- |
| CACGGACAUGAGGAUCACCCAUGUGAGGAUAUGCUCUACGAACGUUUUCCCACGAGAAGCAGAAGGCACAUUUC [try 2] | 42.6 | 90.8 |
| AUAAAACAUGAGGAUCACCCAUGUCAGGAUAUACGAUAUUAAAUUUAAUAUAUUUAUAGUAGAAGGGACAAAUA [High Five] | 31.6 | 37.1 |
| AAAAAACAUGAGGAUCACCCAUGUAAGGAUAUGUAAAAUAAAAGAAAAAUAAAGAAAAGCAGAAGGUACAAAAA [JL wbt mod 19] | 25.9 | 25 |
| AAGAAGGAAGGAUAUACAAAAUAAAAGAAAAGAAAGAAAGAACAUGAGGAUCACCCAUGUAGAAGGUCCAAGAA [Sedjefakare] | 29.8 | 34.7 |
| AAGAAGAGAGGAUAUACUAAAGAAAUGAAAAGAAAGAAAGAACAUGAGGAUCACCCAUGUAGAAGGCUCAAGAA [Snaaib] | 27.8 | 18.1 |
| AACUGACAUGAGGAUCACCCAUGUCAGGAUAUGCUUCAUAAAAACAAACAAAAAUGAUGCAGAAGGGACAUGGG [Design 31 :P Sub-opt 7] | 17.1 | 39.5 |
| GAUAAACAUGAGGAUCACCCAUGUCAGGAUAUGCACUAACUAACUAACUAACUAGCUAGCAGAAGGGACACUAC [Amethyst 86] | 24.9 | 33.4 |
| AACUGACAUGAGGAUCACCCAUGUCAGGAUAUGACAUCGAGAAAUAAAUAAAUCGUUGUCAGAAGGGACAUGAA [Design 79: Sub-opt TB] | 17.5 | 13.4 |
| AGCAAACAUGAGGAUCACCCAUGUUAGGAUAUGAACGAAAAUAAAUAAAAAUAAAAGUUCAGAAGGGACGAGCA [66%, Wbt, 28] | 28.1 | 37.7 |
| AAAUGCUGAGGAUAUACAUGAGGAUCACCCAUGUAAAAUAAAUAAUGGGUGUAAACGUGUAGAAGGCAGCAUAA [Exclusion 3.14d (FMN+ favored )] | 33.8 | 16.8 |
| AAGAAGGUAGGAUAUACUAGGGAAACUAAUGCAAAGAUAAAACAUGAGGAUCACCCAUGUAGAAGGGCCAGAAA [JR_Exc002_Sub017] | 40.8 | 65.5 |
| AGUCAUACAGGAUAUACAUGAGGAUCACCCAUGUAAAUCCUAAAAAGGUGAUCCUCAUGUAGAAGGGUAUGACA [EX3 219: Super Stable 19] | 21.8 | 17.7 |
| AGUUGGCGAGGAUAUACAUGAGGAUCACCCAUGUAAAAUAAAUAAAAAAUAGGGAAAAGUAGAAGGCGCUGACA [73%, Moding Norbert Elias, 13] | 48.4 | 96.3 |
| AACUAGCUAGGAUAUACAUGAGGAUCACCCAUGUAAAAAAAAAAAAAAAGAUUUAUAUGUAGAAGGAGCUAGUA [Design 3 - Brourd - Exclusion 3] | 31.6 | 61.8 |
| AAGAAGAGAGGAUAUACUAAAGAAAUGAAAAGAAAUAAAGAACAUGAGGAUCACCCAUGUAGAAGGCUCAAGAA ['Ammu Ahotepre] | 25.5 | 21 |
| AAAAAGGCAGGAUAUGCAUACUCACGGAAAAACUGGAUGGUACAUGAGGAUCACCCAUGUAGAAGGGCUAAAAA [Dora Explored 16 - Jieux - Exclusion 2] | 55 | 44.3 |
| CACAAGUCAGGAUAUUCGACAAGUAAAUCAGUAGAUCAAAAGAAGAAGGGACAUGAGGAUCACCCAUGUAAAUA [JR_Exc004_Sub402] | 39.1 | 22.3 |
| GGUUGGCGAGGAUAUACAUGAGGAUCACCCAUGUGAGAGAAAAAAGUGAGGAAGAAAAGUAGAAGGCGCUGACG [salish99-ex3-14] | 32 | 636 |
| CAAAGGUGAGGAUAUGCAUAACUAUGACGAAAGUCAUAAACACAUGAGGAUCACCCAUGUAGAAGGCACCACAA [e2-2] | 37.2 | 18.8 |
| AAAGGACGAGGAUAUACAUGAGGAUCACCCAUGUAAAGGGCAUAAAAAAAGAACUUAUGUAGAAGGCGUCCAAA [Mat - Exclusion 3 - Eli mod - D95] | 35 | 26.8 |
| AAAAAACAUGAGGAUCACCCAUGUAAGGAUAUGCUGAAAAACACGGAAAAACGUGACAGCAGAAGGUACAAAAA [66%, Wbt, 32] | 21.6 | 30.4 |
| CAAAGGUGAGGAUAUACAAAAAAAUGACGAAAGUCAUCCACACAUGAGGAUCACCCAUGUAGAAGGCACCACAA [E2 64% 6] | 30 | 29.2 |
